Molecular target: modified CypA (S99T, F113G, C115M) (CypAgtm), overexpressed in E. coli and purified (UniProt P62937)
Test: direct fluorescence binding assay, purified CypAgtm

Kd: 9 nM
Substance: alpha-cyclopentyl, sarcosine11-CsA (CpSar11-CsA) (peptide)
